US20240360228A1 (BIOLEGEND, published 2024)

How the values were obtained:
human CCR8 [1] = biological target: T1, human CCR8 (human, UniProt P51685 1-355); assay: flow blocking, PBMC CCR8+CD4+; competitor PE-AB1
T1 construct: Native CCR8 on human PBMC (CCR8+ CD3+ or CCR8+ CD4+ lymphocytes); also called chemokine (C-C motif) receptor 8
Experimental: (§1) For blocking studies, 100 μL of the cell suspension were incubated with 10 μg purified isotype control, AB1, AB2, AB3, AB4, AB5, AB8, AB9, AB10, AB11, AB12, AB13, AB14, AB15, and Commercial ABI antibodies, or isotype control, as blocking agents.
(§2) After incubation with the blocking agent, the cells were incubated with 0.25 μg of the indicated PE-conjugated antibody plus anti-human CD4 APC or anti-human CD3 for another 15 minutes in the dark and then washed 2 times with Cell Staining Buffer, and acquired in a FACSCanto II flow cytometer (BD Biosciences); the data was analyzed using FCS Express (De Novo Software); MFI correspond to the CCR8+ CD4+ lymphocytes or CCR8+ CD3+ lymphocytes.
(§3) Percentage original MFI was calculated by dividing the MFI of samples blocked with AB1, AB2, AB3, AB4, AB5, AB6, AB7, AB8, AB9, AB10, AB11, AB12, AB13, AB14, AB15, and Commercial ABI antibodies, by the MFI of samples blocked with the corresponding isotype control. This value was subtracted from 100 to get a blocking percentage. The formula is shown below: […]

human CCR8 [2] = biological target: T1, human CCR8; assay: flow blocking, PBMC CCR8+CD4+; competitor PE-AB2
Experimental: as §1, §2, §3

human CCR8 [3] = biological target: T1, human CCR8; assay: flow blocking, PBMC CCR8+CD4+; competitor PE-AB3
Experimental: as §1, §2, §3

human CCR8 [4] = biological target: T1, human CCR8; assay: flow blocking, PBMC CCR8+CD4+; competitor PE-AB4
Experimental: as §1, §2, §3

human CCR8 [5] = biological target: T1, human CCR8; assay: flow blocking, PBMC CCR8+CD4+; competitor PE-AB5
Experimental: as §1, §2, §3

human CCR8 [6] = biological target: T1, human CCR8; assay: flow blocking, PBMC CCR8+CD4+; competitor PE-AB6
Experimental: as §1, §2

human CCR8 [7] = biological target: T1, human CCR8; assay: flow blocking, PBMC CCR8+CD4+; competitor PE-433H
Experimental: as §1, §2

human CCR8 [8] = biological target: T1, human CCR8; assay: flow blocking, PBMC CCR8+CD4+; competitor PE-AB10
Experimental: as §1, §2, §3

human CCR8 [9] = biological target: T1, human CCR8; assay: flow blocking, PBMC CCR8+CD4+; competitor PE-AB11
Experimental: as §1, §2, §3

human CCR8 [10] = biological target: T1, human CCR8; assay: flow blocking, PBMC CCR8+CD4+; competitor PE-AB12
Experimental: as §1, §2, §3

human CCR8 [11] = biological target: T1, human CCR8; assay: flow blocking, PBMC CCR8+CD4+; competitor PE-AB13
Experimental: as §1, §2

human CCR8 [12] = biological target: T1, human CCR8; assay: flow blocking, PBMC CCR8+CD4+; competitor PE-AB14
Experimental: as §1, §2

human CCR8 [13] = biological target: T1, human CCR8; assay: flow blocking, PBMC CCR8+CD4+; competitor PE-AB15
Experimental: as §1, §2, §3

T1 sequence (P51685 whole entry): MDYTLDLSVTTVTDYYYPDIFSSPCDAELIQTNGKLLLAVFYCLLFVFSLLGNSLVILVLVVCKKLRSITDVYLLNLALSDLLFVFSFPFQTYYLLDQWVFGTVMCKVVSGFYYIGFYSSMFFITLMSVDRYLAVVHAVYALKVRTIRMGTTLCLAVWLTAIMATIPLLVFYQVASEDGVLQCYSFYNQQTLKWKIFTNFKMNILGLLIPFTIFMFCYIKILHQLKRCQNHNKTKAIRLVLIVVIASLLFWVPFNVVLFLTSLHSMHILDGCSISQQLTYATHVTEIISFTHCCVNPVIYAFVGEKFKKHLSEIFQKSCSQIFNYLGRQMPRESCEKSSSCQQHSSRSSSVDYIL

Binder | % Blocking (human CCR8 [1]) [%] | % Positive cells (human CCR8 [1]) [%] | % Blocking (human CCR8 [2]) [%] | % Positive cells (human CCR8 [2]) [%] | % Blocking (human CCR8 [3]) [%] | % Positive cells (human CCR8 [3]) [%] | % Blocking (human CCR8 [4]) [%] | % Positive cells (human CCR8 [4]) [%] | % Blocking (human CCR8 [5]) [%] | % Positive cells (human CCR8 [5]) [%] | % Blocking (human CCR8 [6]) [%] | % Positive cells (human CCR8 [6]) [%] | % Blocking (human CCR8 [7]) [%] | % Positive cells (human CCR8 [7]) [%] | % Blocking (human CCR8 [8]) [%] | % Positive cells (human CCR8 [8]) [%] | % Blocking (human CCR8 [9]) [%] | % Positive cells (human CCR8 [9]) [%] | % Blocking (human CCR8 [10]) [%] | % Positive cells (human CCR8 [10]) [%] | further results
AB2 (antibody, V domains shown, Hybridoma monoclonal; Same VH/VL entries as AB1; also called antibody 2; clone 2) VH: QVQLKESGPGLVKPSETLSLTCTVSGFSLTSYHISWVRQPPGKGLEWMGVIWGDGSKTYNSALKSRLSISRDTSKSQVFLKMRSLKTEDTATYYCARGGDSGFAYWGQGTLVTVSS VL: DIQMTQSPASLSASLEEIVTITCQASQDIGNWLSWYQQKPGKSPQLLIYGTTNLADGVPSRFSGSRSGTQYSLKISRLQVEDIGIYYCLQAYSVPLTFGSGTKLEIK | 93.5 | 0.1 | 98.8 | 0.02 | 98.2 | 0.03 | 96.6 | 0.06 | 90.1 | 0.2 | 93.6 | 0.13 | 2.84 | 1.71 | 2.7 | 1.44 | -3.57 | 2.03 | -8.89 | 1.96 | % Blocking (human CCR8 [11]): -6.06%; % Positive cells (human CCR8 [11]): 2.1%; % Blocking (human CCR8 [12]): -15.4%; % Positive cells (human CCR8 [12]): 1.5%; % Blocking (human CCR8 [13]): -18.6%; % Positive cells (human CCR8 [13]): 1.53%
AB15 (antibody, V domains shown, Hybridoma monoclonal; Same VH/VL entries as AB14; also called antibody 15; clone 15) VH: EVQLVESGGGLVQPKGSLKLSCAASGFTFNTYAMNWVRQAPGKGLEWVARIRSKSNNYATYYVDSVKDRFTISRDDSQSMLYLQINNLKTEDTAMYYCVRGRELGPYSAMDYWGQGTSVTVSS VL: DIVMTQAAPSVPVTPGESVSISCRSSKSLLHSNGNTYLYWFLQRPGQSPQLLIYRMSNLASGVPDRFSGSGSGTAFTLRISRVEAEDVGLYYCMQHLEYPFTFGGGTKLEIK | -38.7 | 2.15 | -28.1 | 2.1 | -33.3 | 2.28 | -1.69 | 1.81 | -17.8 | 2.38 | -23.8 | 2.5 | 21.6 | 1.38 | 93.2 | 0.1 | 85.2 | 0.29 | 99.4 | 0.01 | % Blocking (human CCR8 [11]): 91.9%; % Positive cells (human CCR8 [11]): 0.16%; % Blocking (human CCR8 [12]): 99.2%; % Positive cells (human CCR8 [12]): 0.01%; % Blocking (human CCR8 [13]): 93.8%; % Positive cells (human CCR8 [13]): 0.08%
